Experimental data as given in patent US10155934B2, “Cytochrome P450 polypeptide with increased enzyme activity” (SANOFI, priority 2014, dated 2018).

Legend:
cholesterol [1] = assay: In vivo conversion of cholesterol into pregnenolone by recombinant Bacillus megaterium expressing the P450scc polypeptide; assay type: cell-based; settings: 300 μM cholesterol, Bacillus megaterium MS941, assessed after 24 h and 48 h (FIGS. 3 and 4)
cholesterol [2] = assay: In vitro conversion assay of cholesterol by purified CYP11A1 variants with Adx and AdR; assay type: biochemical; settings: 20 μM cholesterol, saturating Adx and AdR; for activity, SA4 compared with SA6 (in vitro conversion of cholesterol): 1 μM enzyme
Description: For in vitro enzyme assays, 150 mM of HEPES buffer, adjusted to pH 7.4, containing 0.05% Tween-20 and 1 mM MgCl2, were applied as reaction buffer. 1 unit of glucose-6-phosphate dehydrogenase, with 5 mM glucose-6-phosphate as substrate, served as a NADPH-regenerating system.
For WT P450scc (noted “SA4”, SEQ ID NO: 4) and P450scc-I1A-K193E (noted “SA6”, SEQ ID NO: 6) the concentrations of CYP11A1, Adx and AdR were of 1 μM, 20 μM and 0.5 μM, and for P450scc-R225T-N289D (noted “SA1”, SEQ ID NO: 1) the concentrations of CYP11A1, Adx and AdR were of 0.25 μM, 5 μM and 0.125 μM, respectively.
The samples were pre-warmed to 37° C. and the reaction was started by addition of NADPH to a final concentration of 100 μM. The mixtures were incubated at 37° C. with agitation for 30 s. The reaction was stopped by boiling the samples in water for 30 s.
To allow photometric detection at 240 nm, the steroids were converted into their 3-keto-Δ4 derivatives using a cholesterol oxidase from Nocardia spec.
20 μl of a cholesterol oxidase solution (5 mg cholesterol oxidase and 5 mg Na-cholate dissolved in 5 ml of 50 mM HEPES buffer pH 7, containing 0.05% Tween-20) were added to the samples. After incubation at 37° C. for 1 h, 11-deoxycorticosterone (DOC) was added to the reaction mixtures as an internal standard, followed by a 2-times extraction with equal volumes of ethylacetate. After evaporation, the extracts were dissolved in acetonitrile/water.
After acute evaluation of the concentration of each P450scc preparation, SA1, SA4 and SA6 were used in the following in vitro assays. Each of these isoforms was reconstituted at a concentration of 1 μM in the presence of cholesterol as a substrate (20 μM) in saturating amounts of Adx and AdR.

Row | Molecule | in vivo cholesterol conversion activity compared to SA6 (cholesterol [1]) [fold] | activity compared to SA4 and SA6 (in vitro conversion of cholesterol) (cholesterol [2]; 37° C., 30 s, HPLC (FIG. 1)) | activity, SA4 compared with SA6 (in vitro conversion of cholesterol) (cholesterol [2])
1 | SA1: CYP11A1 comprising a threonine at position 225 and an aspartic acid at position 289 (protein, Mutated amino acid sequence of CYP11A1) ISTKTPRPYSEIPSPGDNGWLNLYHFWREKGSQRIHFRHIENFQKYGPIYREKLGNLESVYIIHPEDVAHLFKFEGSYPERYDIPPWLAYHRYYQKPIGVLFKKSGTWKKDRVVLNTEVMAPEAIKNFIPLLNPVSQDFVSLLHKRIKQQGSGKFVGDIKEDLFHFAFESITNVMFGERLGMLEETVNPEAQKFIDAVYKMFHTSVPLLNVPPELYRLFRTKTWTDHVAAWDTIFNKAEKYTEIFYQDLRRKTEFRNYPGILYCLLKSEKMLLEDVKANITEMLAGGVDTTSMTLQWHLYEMARSLNVQEMLREEVLNARRQAEGDISKMLQMVPLLKASIKETLRLHPISVTLQRYPESDLVLQDYLIPAKTLVQVAIYAMGRDPAFFSSPDKFDPTRWLSKDKDLIHFRNLGFGWGVRQCVGRRIAELEMTLFLIHILENFKVEMQHIGDVDTIFNLILTPDKPIFLVFRPFNQDPPQA | 2 | 2-3 fold | 
2 | SA4: WT Bos taurus CYP11A1, mature form, wild-type control (protein, listed as Bos taurus) ISTKTPRPYSEIPSPGDNGWLNLYHFWREKGSQRIHFRHIENFQKYGPIYREKLGNLESVYIIHPEDVAHLFKFEGSYPERYDIPPWLAYHRYYQKPIGVLFKKSGTWKKDRVVLNTEVMAPEAIKNFIPLLNPVSQDFVSLLHKRIKQQGSGKFVGDIKEDLFHFAFESITNVMFGERLGMLEETVNPEAQKFIDAVYKMFHTSVPLLNVPPELYRLFRTKTWRDHVAAWDTIFNKAEKYTEIFYQDLRRKTEFRNYPGILYCLLKSEKMLLEDVKANITEMLAGGVNTTSMTLQWHLYEMARSLNVQEMLREEVLNARRQAEGDISKMLQMVPLLKASIKETLRLHPISVTLQRYPESDLVLQDYLIPAKTLVQVAIYAMGRDPAFFSSPDKFDPTRWLSKDKDLIHFRNLGFGWGVRQCVGRRIAELEMTLFLIHILENFKVEMQHIGDVDTIFNLILTPDKPIFLVFRPFNQDPPQA |  |  | identical activity
3 | SA6: P450scc-I1A-K193E polypeptide, control (protein, Mutated amino acid sequence of CYP11A1, P450scc-I1A-K193E polypeptide, control) ASTKTPRPYSEIPSPGDNGWLNLYHFWREKGSQRIHFRHIENFQKYGPIYREKLGNLESVYIIHPEDVAHLFKFEGSYPERYDIPPWLAYHRYYQKPIGVLFKKSGTWKKDRVVLNTEVMAPEAIKNFIPLLNPVSQDFVSLLHKRIKQQGSGEFVGDIKEDLFHFAFESITNVMFGERLGMLEETVNPEAQKFIDAVYKMFHTSVPLLNVPPELYRLFRTKTWRDHVAAWDTIFNKAEKYTEIFYQDLRRKTEFRNYPGILYCLLKSEKMLLEDVKANITEMLAGGVNTTSMTLQWHLYEMARSLNVQEMLREEVLNARRQAEGDISKMLQMVPLLKASIKETLRLHPISVTLQRYPESDLVLQDYLIPAKTLVQVAIYAMGRDPAFFSSPDKFDPTRWLSKDKDLIHFRNLGFGWGVRQCVGRRIAELEMTLFLIHILENFKVEMQHIGDVDTIFNLILTPDKPIFLVFRPFNQDPPQA |  |  | identical activity
